The record followed here is paper PMC8727025, “Src activates retrograde membrane traffic through phosphorylation of GBF1” (eLife, 2021).

Where only a bound is given, the exact number is not on record here.

For assay [1], the target named is T1, GFP-GBF1-Y876.898F double mutant immunoprecipitated from cells expressing active SrcEG (human, UniProt Q92538-1 1-1859, Y876F | Y898F).
T1 construct: GBF1, human, with Y876F and Y898F; source: expressed in cells coexpressing active SrcEG, immunoprecipitated on GFP-trap agarose beads; not shown: GFP, N-terminal, kept
Nature of the assay: pull-down; in vitro Arf1 binding assay: NGFP-GBF1 (wild type or mutant) immunoprecipitated on GFP-trap agarose beads from cells expressing SrcKM or SrcEG, incubated with 10 µg recombinant Arf1-del17 protein for 1 hr at 4°C in the presence of GDP; washed three times with HKMT buffer (20 mM HEPES pH 7.4, 0.1 M KCl, 1 mM MgCl2, 0.5% Triton X-100); bound Arf1 by western blot. Particulars: both partners purified.

Assay [2] concerns the target T2, GFP-GBF1-Y876F immunoprecipitated from cells expressing active SrcEG (human, UniProt Q92538-1 1-1859, Y876F).
T2 construct: GBF1, human, with Y876F; source: expressed in cells coexpressing active SrcEG, immunoprecipitated on GFP-trap agarose beads; not shown: GFP, N-terminal, kept
The assay is described as above. Particulars: both partners purified.

In assay [3] the target is T3, GFP-GBF1-Y898F immunoprecipitated from cells expressing active SrcEG (human, UniProt Q92538-1 1-1859, Y898F).
T3 construct: GBF1, human, with Y898F; source: expressed in cells coexpressing active SrcEG, immunoprecipitated on GFP-trap agarose beads; not shown: GFP, N-terminal, kept
Described as above. Particulars: both partners purified.

Assay [4] concerns the target T4, GFP-GBF1 (wild type) immunoprecipitated from cells expressing active SrcEG (tyrosine-phosphorylated GBF1) (human, UniProt Q92538-1 1-1859, phosphotyrosine at Y876 and Y898 and at eight other tyrosines (10 in all by mass spectrometry; positions 317, 377, 515 and five tyrosines in HDS2/3 are named)). Nature of the assay: cell-based or functional assay.
Assay [5] concerns the target T4, GFP-GBF1 (wild type) immunoprecipitated …. Put plainly: pull-down; in vitro Arf1 binding assay: NGFP-GBF1 immunoprecipitated on GFP-trap agarose beads from cells expressing SrcKM or SrcEG, incubated with 4 mg lysate of HEK293T cells expressing Arf1-V5 (pre-cleared) for 1 hr at 4°C in the presence of GDP; washed three times with HKMT buffer (20 mM HEPES pH 7.4, 0.1 M KCl, 1 mM MgCl2, 0.5% Triton X-100); bound Arf1 by immunoblot. Particulars: one partner purified. On the technique in general: In western blotting, separated proteins are transferred to a membrane and probed.

T4 sequence (Q92538 other isoform, or with tags, fused parts or gaps): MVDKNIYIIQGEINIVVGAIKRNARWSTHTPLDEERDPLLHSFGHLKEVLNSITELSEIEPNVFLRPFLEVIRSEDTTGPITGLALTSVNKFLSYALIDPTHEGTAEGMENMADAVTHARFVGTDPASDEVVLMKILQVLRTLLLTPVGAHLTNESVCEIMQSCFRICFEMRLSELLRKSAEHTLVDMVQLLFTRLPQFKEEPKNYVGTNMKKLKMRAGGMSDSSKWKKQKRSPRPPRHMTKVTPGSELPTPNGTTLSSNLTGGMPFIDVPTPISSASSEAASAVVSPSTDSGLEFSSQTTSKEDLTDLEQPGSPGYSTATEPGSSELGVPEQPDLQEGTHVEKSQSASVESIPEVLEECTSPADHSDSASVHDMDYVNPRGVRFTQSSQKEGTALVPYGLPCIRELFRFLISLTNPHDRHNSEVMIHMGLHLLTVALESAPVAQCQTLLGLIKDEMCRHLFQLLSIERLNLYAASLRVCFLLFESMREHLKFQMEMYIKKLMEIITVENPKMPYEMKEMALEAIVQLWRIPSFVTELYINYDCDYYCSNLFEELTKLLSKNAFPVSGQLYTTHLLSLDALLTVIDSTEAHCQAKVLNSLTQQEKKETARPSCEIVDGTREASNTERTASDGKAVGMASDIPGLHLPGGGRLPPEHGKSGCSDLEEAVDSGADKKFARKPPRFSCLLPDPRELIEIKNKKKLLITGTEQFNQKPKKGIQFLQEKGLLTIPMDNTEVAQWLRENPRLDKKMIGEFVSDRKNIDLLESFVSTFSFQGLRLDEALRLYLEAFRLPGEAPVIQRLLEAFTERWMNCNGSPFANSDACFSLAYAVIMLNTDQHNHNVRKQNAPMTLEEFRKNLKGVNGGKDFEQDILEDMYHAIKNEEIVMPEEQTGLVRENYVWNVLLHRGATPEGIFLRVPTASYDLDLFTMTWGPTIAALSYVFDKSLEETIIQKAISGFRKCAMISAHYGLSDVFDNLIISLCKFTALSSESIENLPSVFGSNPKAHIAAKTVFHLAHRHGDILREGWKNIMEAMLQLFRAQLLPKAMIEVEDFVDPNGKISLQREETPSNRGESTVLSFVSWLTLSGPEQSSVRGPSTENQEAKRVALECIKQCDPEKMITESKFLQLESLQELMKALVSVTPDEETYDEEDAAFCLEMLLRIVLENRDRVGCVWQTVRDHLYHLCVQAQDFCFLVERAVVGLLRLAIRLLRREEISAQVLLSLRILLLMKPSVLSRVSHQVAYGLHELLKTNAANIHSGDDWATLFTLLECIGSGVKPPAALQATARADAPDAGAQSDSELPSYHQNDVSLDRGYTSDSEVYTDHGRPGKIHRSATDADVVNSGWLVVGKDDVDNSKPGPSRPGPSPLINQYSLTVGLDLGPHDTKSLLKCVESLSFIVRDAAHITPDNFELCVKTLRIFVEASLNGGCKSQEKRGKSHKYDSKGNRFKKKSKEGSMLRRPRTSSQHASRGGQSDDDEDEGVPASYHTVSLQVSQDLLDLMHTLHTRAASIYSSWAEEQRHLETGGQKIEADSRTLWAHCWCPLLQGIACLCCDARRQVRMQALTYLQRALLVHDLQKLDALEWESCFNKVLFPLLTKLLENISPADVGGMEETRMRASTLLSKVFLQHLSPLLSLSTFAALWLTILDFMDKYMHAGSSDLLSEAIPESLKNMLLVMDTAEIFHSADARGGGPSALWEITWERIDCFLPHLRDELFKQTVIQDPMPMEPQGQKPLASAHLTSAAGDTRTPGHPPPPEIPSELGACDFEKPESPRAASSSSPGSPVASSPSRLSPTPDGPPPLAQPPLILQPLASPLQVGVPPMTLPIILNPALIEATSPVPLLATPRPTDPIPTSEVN
T2 sequence (Q92538 other isoform, or with tags, fused parts or gaps Y876F | Y876F | Y876F Y876F): as the sequence (Q92538 other isoform, or with tags, fused parts or gaps) above, with Y876F counted along it
T1 sequence (Q92538 other isoform, or with tags, fused parts or gaps Y876F | Y898F | Y876F | Y898F | mutant): as the sequence (Q92538 other isoform, or with tags, fused parts or gaps) above, with Y876F, Y898F counted along it
T3 sequence (Q92538 other isoform, or with tags, fused parts or gaps Y898F | Y898F | Y898F Y898F): as the sequence (Q92538 other isoform, or with tags, fused parts or gaps) above, with Y898F counted along it

B1: Arf1-del17-His, recombinant Arf1 deleted of the first 17 amino acids (domain or fragment)
chain: not shown
notes: Arf1 small GTPase deleted of the first 17 amino acids; The assay was done in the presence of GDP; also called Arf1-His; recombinant Arf1-del17 protein; source: bacterially produced and purified
In the case of B1, the “percent reduction of bound Arf1 against wild-type GFP-GBF1 from SrcEG cells” value in assay [1] is more than 70%; in assay [2], 40%; in assay [3] it was 60%.

B2: C-terminal V5-tagged Arf1 (Arf1-V5) (natural protein)
chain: not shown
notes: Arf1 small GTPase (ADP-ribosylation factor 1); The assay was done in the presence of GDP; source: HEK293T cells expressing Arf1-V5, in lysate (pre-cleared with agarose beads); not shown: V5, C-terminal, kept
As to B2, the “Arf1-GTP levels (GGA3 PBD bead pull-down of endogenous Arf1-GTP) in HEK-IS cells expressing GFP-GBF1, after imidazole activation of Src8A7F, 0 to 45 min, peak at 10 min” value in assay [4] was approximately 3 fold. Also, in assay [5], the “fold increase in bound Arf1-V5 against GFP-GBF1 from SrcKM cells” value worked out at 2 fold.
